For orientation: Kd means the equilibrium constant for the complex coming apart. One may read the koff as the first-order rate constant of dissociation. For orientation: kon means the second-order rate constant of association.

We go through nine molecules from patent US20160244528A1 (SORRENTO THERAPEUTICS, published 2016).

The target of one assay is T1, mouse CD137/Fc (mouse, UniProt P20334 24-187).
T1 construct: Coated on the ELISA plate at 2 µg/mL; also called murine CD137; not shown: Fc part
T1 sequence (looked up): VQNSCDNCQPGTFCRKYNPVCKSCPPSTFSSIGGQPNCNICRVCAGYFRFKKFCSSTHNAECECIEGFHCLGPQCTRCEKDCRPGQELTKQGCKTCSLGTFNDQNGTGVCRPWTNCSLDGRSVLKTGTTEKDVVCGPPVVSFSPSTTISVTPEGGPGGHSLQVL
The assay can be described thus: ELISA, plate coated with mouse CD137/Fc at 2 µg/mL, detection with HRP anti-human Lambda, OD 450 nm. The protocol:
A Maxisorp plate was coated with recombinant human CD137/Fc or mouse CD137/Fc at 2 μg/mL at 4° C., overnight. The plate was blocked for 1 hour at room temperature, washed 3 times with PBS-Tween (PBST), then anti-CD137 antibodies (˜1 μg/mL) diluted in casein were added and incubated for 30 min with shaking. The plate was washed 3 times with PBST, horseradish peroxidase (HRP)-conjugated mouse anti-human Lambda (1:1000 in casein) was added, then 3,3′,5,5′-Tetramethylbenzidine (TMB) was added as substrate and developed about 5 min. 2M H₂SO₄ was used to stop the reaction and the OD was read at 450 nm.
In general terms: An ELISA detects its analyte on a solid surface through an enzyme-linked reagent.

The target in assay [1] is T2, Recombinant human CD137/His (human, UniProt Q07011 24-186).
T2 construct: Analyte of the SPR assay; also called 4-1BB; TNFRSF9; not shown: His tag
Nature of the assay: SPR (Biacore), antibody captured on anti-human Fc, human CD137/His as analyte, 1:1 fit. The protocol:
This example illustrates binding affinities of exemplary anti-CD137 antibodies disclosed herein. Affinities were determined using surface plasmon resonance (Biacore). Briefly, anti-human Fc antibody (GE, BR-1008-39) was immobilized on CM5 sensor chip to approximately 1000 RU using standard NHS/EDC coupling methodology. Antibodies (about 10 μg/ml) were captured for 60 s at a flow rate 10 μl/min Recombinant human CD137/His was serially diluted in running buffer (HBS-EP). All measurements were conducted with a flow rate of 30 μL/min Surfaces were regenerated with 3M MgCl₂ for 60 s. A 1:1 (Langmuir) binding model was used to fit the data.
For orientation: Surface plasmon resonance follows binding to a sensor surface in real time, without labels.

B1: anti-CD137 antibody D6 (antibody, V domains shown)
VH: QMQLVQSGAEVKKPGASVKVSCKASGYTFTGYYMHWVRQAPGQGLEWMGWINPNSGGTNYAQKFQGRVTITRDTSASTAYMELSSLRSEDTAVYYCAREGEAVGLDLDYWGQGTLVTVSS
VL: SYELTQPPSVSVAPGKTARITCGGNNIGSKSVHWYQQKPGQAPVLVIYYDSDRPSGIPERFSGSNSGNTATLTISRVEAGDEADYYCQVWDSSSVVFGGGTQLTVL
notes: Fully human antibody, captured through anti-human Fc in SPR and detected with anti-human Lambda in ELISA
On to B1, for which, in the assay with mouse CD137/Fc, the binding result is on record as “no binding”. Further, in assay [1], the Kd is 203 nM, the koff worked out at 0.0814 s⁻¹ and the kon came out at 401000 M⁻¹ s⁻¹.

B2: anti-CD137 antibody MSB7 (antibody, V domains shown)
VH: QMQLVQSGAEVKKPGASVKVSCKASGYSFSGYYMHWVRQAPGQGLEWMGWVNPMSGGTNYAQKFQGRVTITRDTSASTAYMELSSLRSEDTAVYYCAREGMAMRLELDKWGQGTLVTVSS
VL: SYELTQPPSVSVAPGKTARITCGGNNIGSKSVHWYQQKPGQAPVLVIYYDSDRPSGIPERFSGSNSGNTATLTISRVEAGDEADYYCQVWDSSSVVFGGGTQLTVL
notes: Variant of D6 with the same light chain variable domain
Consider B2, for which, in assay [1], the Ka is 6.03e+07 M⁻¹, the koff was found to be 0.00756 s⁻¹ and the kon stood at 456000 M⁻¹ s⁻¹.

B3: anti-CD137 antibody MSH1 (antibody, V domains shown)
VH: QMQLVQSGAEVKKPGASVKVSCKASGYNFGGYYMHWVRQAPGQGLEWMGWVNPHSGGTNYAQKFQGRVTITRDTSASTAYMELSSLRSEDTAVYYCAREGEAWGLDLDLWGQGTLVTVSS
VL: SYELTQPPSVSVAPGKTARITCGGNNIGSKSVHWYQQKPGQAPVLVIYYDSDRPSGIPERFSGSNSGNTATLTISRVEAGDEADYYCQVWDSSSVVFGGGTQLTVL
notes: as for B2
Take B3: in assay [1], the Ka was found to be 1.14e+07 M⁻¹, the koff is 0.0324 s⁻¹ and the association rate constant (kon) was determined as 369000 M⁻¹ s⁻¹.

B4: anti-CD137 antibody MSC8 (antibody, V domains shown)
VH: QMQLVQSGAEVKKPGASVKVSCKASGYNFGGYYMHWVRQAPGQGLEWMGWVNPKSGGTNYAQKFQGRVTITRDTSASTAYMELSSLRSEDTAVYYCAREGEAVGLDLDYWGQGTLVTVSS
VL: SYELTQPPSVSVAPGKTARITCGGNNIGSKSVHWYQQKPGQAPVLVIYYDSDRPSGIPERFSGSNSGNTATLTISRVEAGDEADYYCQVWDSSSVVFGGGTQLTVL
notes: as for B2
On to B4, for which, in the assay with mouse CD137/Fc, the binding result is “no binding”. Also, in assay [1], the off-rate (koff) was 0.0615 s⁻¹ and the kon worked out at 282000 M⁻¹ s⁻¹.

B5: anti-CD137 antibody MD4 (antibody, V domains shown)
VH: QMQLVQSGAEVKKPGASVKVSCKASGYNWTGYYMHWVRQAPGQGLEWMGWINPMAGGTNYAQKFQGRVTITRDTSASTAYMELSSLRSEDTAVYYCAREGWARGVELDMWGQGTLVTVSS
VL: SYELTQPPSVSVAPGKTARITCGGNNIGSKSVHWYQQKPGQAPVLVIYYDSDRPSGIPERFSGSNSGNTATLTISRVEAGDEADYYCQVWDSSSVVFGGGTQLTVL
notes: as for B2
For B5, in assay [1], the Ka is 1.12e+07 M⁻¹, the Kd is 88.9 nM, the koff was 0.0512 s⁻¹ and the kon amounted to 576000 M⁻¹ s⁻¹.

B6: anti-CD137 antibody MB3 (antibody, V domains shown)
VH: QMQLVQSGAEVKKPGASVKVSCKASGYQMRGYYMHWVRQAPGQGLEWMGWINPNSGGTNYAQKFQGRVTITRDTSASTAYMELSSLRSEDTAVYYCAREGEAVGLDLDYWGQGTLVTVSS
VL: SYELTQPPSVSVAPGKTARITCGGNNIGSKSVHWYQQKPGQAPVLVIYYDSDRPSGIPERFSGSNSGNTATLTISRVEAGDEADYYCQVWDSSSVVFGGGTQLTVL
notes: as for B2
As for B6, in the assay with mouse CD137/Fc, the binding result was “no binding”. Also, in assay [1], the koff is 0.0678 s⁻¹ and the kon came to 296000 M⁻¹ s⁻¹.

B7: anti-CD137 antibody MSA11 (antibody, V domains shown)
VH: QMQLVQSGAEVKKPGASVKVSCKASGYSFTGYYMHWVRQAPGQGLEWMGWVNPKSGGTNYAQKFQGRVTITRDTSASTAYMELSSLRSEDTAVYYCAREGWARRIDLDEWGQGTLVTVSS
VL: SYELTQPPSVSVAPGKTARITCGGNNIGSKSVHWYQQKPGQAPVLVIYYDSDRPSGIPERFSGSNSGNTATLTISRVEAGDEADYYCQVWDSSSVVFGGGTQLTVL
notes: as for B2
As to B7, in assay [1], the Ka is 2.13e+07 M⁻¹, the koff came out at 0.00631 s⁻¹ and the kon was found to be 135000 M⁻¹ s⁻¹.

B8: anti-CD137 antibody MB12 (antibody, V domains shown)
VH: QMQLVQSGAEVKKPGASVKVSCKASGYSLEGYYMHWVRQAPGQGLEWMGWINPNSGGTNYAQKFQGRVTITRDTSASTAYMELSSLRSEDTAVYYCAREGEAVGLDLDYWGQGTLVTVSS
VL: SYELTQPPSVSVAPGKTARITCGGNNIGSKSVHWYQQKPGQAPVLVIYYDSDRPSGIPERFSGSNSGNTATLTISRVEAGDEADYYCQVWDSSSVVFGGGTQLTVL
notes: as for B2
In the case of B8, the binding result in the assay with mouse CD137/Fc was “no binding”. Moreover, in assay [1], the Ka came out at 6.47e+06 M⁻¹, the koff was found to be 0.0669 s⁻¹ and the kon turned out to be 433000 M⁻¹ s⁻¹.

B9: anti-CD137 antibody MC8 (antibody, V domains shown)
VH: QMQLVQSGAEVKKPGASVKVSCKASGYMPDGYYMHWVRQAPGQGLEWMGWINPRTGGTNYAQKFQGRVTITRDTSASTAYMELSSLRSEDTAVYYCAREGAAFRLELDAWGQGTLVTVSS
VL: SYELTQPPSVSVAPGKTARITCGGNNIGSKSVHWYQQKPGQAPVLVIYYDSDRPSGIPERFSGSNSGNTATLTISRVEAGDEADYYCQVWDSSSVVFGGGTQLTVL
notes: as for B2
Regarding B9, in assay [1], the Ka was 3.32e+07 M⁻¹, the koff is 0.00628 s⁻¹ and the kon stood at 208000 M⁻¹ s⁻¹.
